Measurements published in patent US5260280A (priority 1989, dated 1993).
Several values for one entry are separate records, joined by “and”; a condition that tells them apart may be missing. Equal entries are not always repeated.

Tests used:
enterotoxin CFA/I(LT-1) = enterotoxin CFA/I(LT-1) (Escherichia coli, UniProt D0Z6T1); format: cell-based, E. coli
[1] = biological target: enterotoxin CFA/II(LT-II) (Escherichia coli, UniProt P0CK94); format: cell-based, E. coli
cholera toxin B-subunits = cholera toxin B-subunits (Vibrio cholerae, UniProt P01556); format: binding
cholera toxin CT = cholera toxin CT (Vibrio cholerae, UniProt P01556); format: cell-based
enterotoxin LT-I = system: enterotoxin LT-I; design: species or system E. coli; conditions: in vivo, po

B1: lactoferrin (protein, UniProt P24627 20-708, looked up)
Lactotransferrin: APRKNVRWCTISQPEWFKCRRWQWRMKKLGAPSITCVRRAFALECIRAIAEKKADAVTLDGGMVFEAGRDPYKLRPVAAEIYGTKESPQTHYYAVAVVKKGSNFQLDQLQGRKSCHTGLGRSAGWIIPMGILRPYLSWTESLEPLQGAVAKFFSASCVPCIDRQAYPNLCQLCKGEGENQCACSSREPYFGYSGAFKCLQDGAGDVAFVKETTVFENLPEKADRDQYELLCLNNSRAPVDAFKECHLAQVPSHAVVARSVDGKEDLIWKLLSKAQEKFGKNKSRSFQLFGSPPGQRDLLFKDSALGFLRIPSKVDSALYLGSRYLTTLKNLRETAEEVKARYTRVVWCAVGPEEQKKCQQWSQQSGQNVTCATASTTDDCIVLVLKGEADALNLDGGYIYTAGKCGLVPVLAENRKSSKHSSLDCVLRPTEGYLAVAVVKKANEGLTWNSLKDKKSCHTAVDRTAGWNIPMGLIVNQTGSCAFDEFFSQSCAPGADPKSRLCALCAGDDQGLDKCVPNSKEKYYGYTGAFRCLAEDVGDVAFVKNDTVWENTNGESTADWAKNLNREDFRLLCLDGTRKPVTEAQSCHLAVAPNHAVVSRSDRAAHVKQVLLHQQALFGKNGKNCPDKFCLFKSETKNLLFNDNTECLAKLGGRPTYEEYLGTEYVTAIANLKKCSTSPLLEACAFLTR
neutralization of the toxicity of LT-I against CHO-Kl cells (morphological alteration) (enterotoxin CFA/I(LT-1)): neutralized the toxicity
neutralization of the toxicity of LT-II against CHO-Kl cells (morphological alteration) [1]: neutralized the toxicity
interference with the binding of the cholera toxin B-subunits to GM1 (cholera toxin B-subunits): interfered with the binding
neutralization of the toxicity of CT against CHO-Kl cells (morphological alteration) (cholera toxin CT): neutralized the toxicity
Rate of diarrhea (enterotoxin LT-I): 40% and 20%
